Experiments:
[1] = target: T1, c-MET on human target cells (human, UniProt P08581 25-1390); experiment: cell-based or functional assay
[2] = target: T1, c-MET on human target cells; experiment: cell-based or functional assay; remark: listed apart in the source
[3] = target: T1, c-MET on human target cells; experiment: cell-based or functional assay; remark: listed apart in the source
[4] = target: T1, c-MET on human target cells; experiment: cell-based or functional assay; remark: listed apart in the source
[5] = target: T1, c-MET on human target cells; experiment: cell-based or functional assay; remark: listed apart in the source
[6] = target: T2, AF647 labeled c-met protein (UniProt P08581 25-932, limits assumed, labeled with AlexaFluor 647 (AF647)); experiment: flow cytometry, EC50 relative to parental Affy6 CAR-T cells (Round 2)
T2 construct: Soluble labeled c-met protein titrated on CAR-T cells
T2 sequence (P08581 25-932 limits assumed): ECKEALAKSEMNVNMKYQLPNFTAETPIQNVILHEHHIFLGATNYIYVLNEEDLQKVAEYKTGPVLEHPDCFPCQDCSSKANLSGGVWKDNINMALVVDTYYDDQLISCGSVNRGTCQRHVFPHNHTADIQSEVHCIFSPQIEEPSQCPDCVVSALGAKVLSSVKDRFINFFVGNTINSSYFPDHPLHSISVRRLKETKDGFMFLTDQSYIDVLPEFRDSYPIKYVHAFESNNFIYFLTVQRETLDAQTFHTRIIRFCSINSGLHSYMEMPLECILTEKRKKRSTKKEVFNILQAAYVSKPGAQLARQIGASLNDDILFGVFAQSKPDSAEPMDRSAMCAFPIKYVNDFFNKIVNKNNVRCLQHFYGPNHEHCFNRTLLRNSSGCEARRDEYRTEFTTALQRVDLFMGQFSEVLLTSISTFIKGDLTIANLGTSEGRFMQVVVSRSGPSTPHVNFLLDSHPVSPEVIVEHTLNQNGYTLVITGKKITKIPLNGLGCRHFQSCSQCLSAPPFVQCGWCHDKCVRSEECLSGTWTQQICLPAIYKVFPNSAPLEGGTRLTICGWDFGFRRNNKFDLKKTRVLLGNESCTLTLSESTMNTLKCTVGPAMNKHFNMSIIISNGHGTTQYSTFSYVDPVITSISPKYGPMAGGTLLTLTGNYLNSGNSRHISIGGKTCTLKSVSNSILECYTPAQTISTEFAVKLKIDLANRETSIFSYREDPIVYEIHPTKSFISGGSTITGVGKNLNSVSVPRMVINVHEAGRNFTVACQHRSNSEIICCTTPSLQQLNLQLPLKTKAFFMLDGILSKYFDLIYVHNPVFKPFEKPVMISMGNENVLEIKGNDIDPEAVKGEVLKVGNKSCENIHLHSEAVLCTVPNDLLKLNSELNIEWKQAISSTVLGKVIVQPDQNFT
Experimental: (§1) Binding of labeled c-MET to CAR-T cells expressing the affinity tuned c-MET scFvs was evaluated by transducing lentivirus anti-c-MET CAR particles into human T cells to form c-MET CAR-T cells incubated with AF647-labeled c-MET. […] Following a 48 hr. incubation at 37° C., the culture media was brought up to […] per well and incubated at 37° C. for 10 days.
(§2) Cells were stained on ice for 30 mins and then washed with PBS. After washing, residually bound protein on CAR T cells were measured on a flow cytometer (Beckman, CytoFLEX®). The resulting binding data was fit using a non-linear regression analysis on GraphPad Prism to calculate half effective dose concentration (EC₅₀) values. The results of this analysis are shown in FIGS. 2-5 and Tables 2-5 below.

[7] = target: T2, AF647 labeled c-met protein; experiment: flow cytometry, AF647-labeled c-met protein titrated on CAR-T cells (Round 2)
Experimental: as §1, §2

T1 sequence (P08581 25-1390): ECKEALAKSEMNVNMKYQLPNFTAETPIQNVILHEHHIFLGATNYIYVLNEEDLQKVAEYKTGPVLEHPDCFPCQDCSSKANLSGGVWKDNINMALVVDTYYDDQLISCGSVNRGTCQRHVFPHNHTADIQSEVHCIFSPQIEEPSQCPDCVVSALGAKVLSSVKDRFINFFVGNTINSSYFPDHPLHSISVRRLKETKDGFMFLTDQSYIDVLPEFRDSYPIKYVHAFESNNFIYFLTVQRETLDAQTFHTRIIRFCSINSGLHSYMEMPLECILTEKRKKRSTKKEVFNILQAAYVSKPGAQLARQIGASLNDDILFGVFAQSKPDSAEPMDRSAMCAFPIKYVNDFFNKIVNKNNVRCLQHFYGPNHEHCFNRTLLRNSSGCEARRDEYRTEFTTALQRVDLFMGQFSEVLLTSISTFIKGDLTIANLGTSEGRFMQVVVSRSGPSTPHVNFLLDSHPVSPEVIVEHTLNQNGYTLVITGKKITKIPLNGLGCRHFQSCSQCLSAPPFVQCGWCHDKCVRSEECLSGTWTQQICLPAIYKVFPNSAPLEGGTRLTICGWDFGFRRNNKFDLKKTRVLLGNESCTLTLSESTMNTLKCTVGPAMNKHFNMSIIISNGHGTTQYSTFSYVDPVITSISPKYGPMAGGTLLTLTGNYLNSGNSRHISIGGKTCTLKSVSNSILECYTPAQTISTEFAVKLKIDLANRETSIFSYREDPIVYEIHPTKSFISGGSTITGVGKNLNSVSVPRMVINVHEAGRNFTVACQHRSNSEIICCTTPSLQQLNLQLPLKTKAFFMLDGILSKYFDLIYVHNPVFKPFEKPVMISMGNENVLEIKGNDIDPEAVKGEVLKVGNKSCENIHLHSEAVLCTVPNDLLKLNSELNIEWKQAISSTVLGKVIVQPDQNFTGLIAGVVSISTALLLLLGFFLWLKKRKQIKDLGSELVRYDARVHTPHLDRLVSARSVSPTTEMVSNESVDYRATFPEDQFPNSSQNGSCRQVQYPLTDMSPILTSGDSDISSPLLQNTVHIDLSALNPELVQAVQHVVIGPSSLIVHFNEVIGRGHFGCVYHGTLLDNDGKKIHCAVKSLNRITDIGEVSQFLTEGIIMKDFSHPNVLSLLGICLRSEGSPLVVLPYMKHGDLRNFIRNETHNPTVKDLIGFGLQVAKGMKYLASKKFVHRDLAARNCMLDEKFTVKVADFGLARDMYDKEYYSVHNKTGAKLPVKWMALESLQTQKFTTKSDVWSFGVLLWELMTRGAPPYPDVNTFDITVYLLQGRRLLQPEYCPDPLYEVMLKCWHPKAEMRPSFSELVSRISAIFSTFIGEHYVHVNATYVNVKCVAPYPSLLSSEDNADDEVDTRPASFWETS

B1: Affy6-I3F CAR (other)
chain: GSEQKLISEEDLGSQVQLVQSGAEVKKPGASVKVSCKASGYIFTAYTMHWVRQAPGQGLEWMGWIKPNNGLANYAQKFQGRVTMTRDTSISTAYMELSRLRSDDTAVYYCARSEFTTEFDYWGQGTLVTVSSGGGGSGGGGSGGGGSDIVLTQSPDSLAVSLGERATINCKSSESVDSYANSFMHWYQQKPGQPPKLLIYRASTRESGVPDRFSGSGSRTDFTLTISSLQAEDVAVYYCQQSKEDPLTFGGGTKVEIKASTTTPAPRPPTPAPTIASQPLSLRPEACRPAAGGAVHTRGLDFACDFWVLVVVGGVLACYSLLVTVAFIIFWVRSKRSRLLHSDYMNMTPRRPGPTRKHYQPYAPPRDFAAYRSLRVKFSRSADAPAYQQGQNQLYNELNLGRREEYDVLDKRRGRDPEMGGKPRRKNPQEGLYNELQKDKMAEAYSEIGMKGERRRGKGHDGLYQGLSTATKDTYDALHMQALPPR
notes: CAR on transduced human T cells; I to F in HC CDR3; P2A remnant not included; also called MycT-Affy6-I3F CAR-SSTR2
percent cytotoxicity, H1993, 24 hrs [1]: 64.7%
percent cytotoxicity, H1993, 48 hrs [1]: 91.3%
percent cytotoxicity, H1993, 72 hrs [1]: 97%
cytotoxicity, Normal Human Lung Cells, 8 hrs [2]: 17.1
cytotoxicity, Normal Human Lung Cells, 16 hrs [2]: 16.4
cytotoxicity, Normal Human Lung Cells, 24 hrs [2]: 19.1
cytotoxicity, Normal Human Lung Cells, 32 hrs [2]: 18
cytotoxicity, Normal Human Lung Cells, 40 hrs [2]: 29.4
cytotoxicity, Normal Human Lung Cells, 48 hrs [2]: 34.8
cytotoxicity, Normal Human Liver Cells, 8 hrs [3]: 15.3
cytotoxicity, Normal Human Liver Cells, 16 hrs [3]: 24.7
cytotoxicity, Normal Human Liver Cells, 24 hrs [3]: 31.8
cytotoxicity, Normal Human Liver Cells, 32 hrs [3]: 34.8
cytotoxicity, Normal Human Liver Cells, 40 hrs [3]: 34.8
cytotoxicity, Normal Human Liver Cells, 48 hrs [3]: 31.8
cytotoxicity, Normal Human Kidney Cells, 8 hrs [4]: 19.2
cytotoxicity, Normal Human Kidney Cells, 16 hrs [4]: 28
cytotoxicity, Normal Human Kidney Cells, 24 hrs [4]: 30.4
cytotoxicity, Normal Human Kidney Cells, 32 hrs [4]: 27.8
cytotoxicity, Normal Human Kidney Cells, 40 hrs [4]: 18.8
cytotoxicity, Normal Human Kidney Cells, 48 hrs [4]: 16.5
cytotoxicity, Normal Human Colon Cells, 8 hrs [5]: 13.2
cytotoxicity, Normal Human Colon Cells, 16 hrs [5]: 19.2
cytotoxicity, Normal Human Colon Cells, 24 hrs [5]: 22.4
cytotoxicity, Normal Human Colon Cells, 32 hrs [5]: 13.3
cytotoxicity, Normal Human Colon Cells, 40 hrs [5]: 1.6
cytotoxicity, Normal Human Colon Cells, 48 hrs [5]: 8.3
Fold Change [6]: 937 fold
EC50 [7]: 20.5 µM
